Test system: patients with metastatic breast cancer
Test: Phase 1 dose-escalation study, safety and tolerability of weekly LV (Day 1, 8, 15 of 3-week cycle)
Type: in vivo, human
From the text: This is a phase 1, open label, dose escalation study to evaluate the safety and tolerability of ladiratuzumab vedotin (LV) in patients with metastatic breast cancer.
Eligible patients are females at least 18 years of age who have incurable, unresectable, locally advanced or metastatic breast cancer (LA/mBC). Patients must have pathologically and radiologically confirmed hormone receptor-positive/human epidermal growth factor 2 negative (HR+/HER2−) or metastatic triple-negative breast cancer (mTNBC) with at least 1 measurable lesion per RECIST v1.1. Subjects with HR+/HER2− disease must have received no more than 1 prior line of cytotoxic chemotherapy in the locally advanced (LA)/mBC setting, either as single agent or combination therapy. Subjects with TNBC must have received 1 prior line of cytotoxic chemotherapy in the LA/mBC setting. Progression within 6 months of completion of neoadjuvant therapy is considered an LA/mBC regimen. Enrollment is open to all patients, irrespective of their LIV-1 expression level. Available and adequate archival baseline tumor sample is required. A fresh biopsy sample may be submitted in place of an archival sample if medically feasible.
Up to […] will be enrolled (42 HR+/HER2− and 42 mTNBC) into dose escalation and dose-expansion cohorts. Patients will receive LV on Day 1, Day 8, and Day 15 in every 3-week cycle. The study will have dose escalation and expansions cohorts. Patients with HR+/HER2− and TN disease will be enrolled into separate dose-expansion cohorts for each dose level.
Dose escalation will be conducted using the modified toxicity probability interval (mTPI) method according to Ji Y. et al. Clin Trials 7(6):653-63 (2010). Only 1 dose-escalation cohort will be open at a time. Dose-expansion cohorts may be opened at any dose level that has cleared dose-limiting toxicity (DLT) evaluation. Initially, up to approximately 10 patients will be enrolled at each dose level. DLT evaluation will only include data from the dose-escalation cohorts, but the totality of data from all patients at each dose level will be used to determine the recommended weekly LV dose.
LV will be administered at a dose of 0.75 mg/kg to 1.75 mg/kg by intravenous infusion over the course of 30 minutes on Day 1, Day 8, and Day 15 in every 3-week cycle.
The DLT evaluation period is the first treatment cycle (3 weeks). A DLT will be defined as any AE≥Grade 3, according to the NCI CTCAE v4.03, that is possibly, probably, or definitely related to treatment with LV, unless evidence exists that the AE has an etiology other than the investigational agent (e.g., disease progression, pre-existing medical condition, underlying disease, intercurrent illness, or concomitant medication), and/or the event has no plausible temporal relationship to administration of the investigational agent.
Patients were enrolled in the study described in Example 19. Patients had either first or second line endocrine refractory HR+/HER2− metastatic breast cancer or second line metastatic triple negative breast cancer (TNBC). LV was administered at a dose of 1.0 mg/kg, 1.25 mg/kg, or 1.5 mg/kg by intravenous infusion over the course of 30 minutes on Day 1, Day 8, and Day 15 in every 3-week cycle as described in Example 19.

ladiratuzumab vedotin [LV]
Grade 5 ischemic colitis, subjects (1 mg/kg LV, unrelated to treatment): *Grade 5 ischemic colitis was observed in 1 subject treated with 1 mg/kg LV. This was unrelated to treatment. | Grade 3 or higher TEAE: Any Adverse Event (1.0 mg/kg Q1W, n = 20): 12 (60%) n (%) | Grade 3 or higher TEAE: Diarrhoea (1.0 mg/kg Q1W, n = 20): 1 (5%) n (%) | Grade 3 or higher TEAE: Fatigue (1.0 mg/kg Q1W, n = 20): 4 (20%) n (%) | Grade 3 or higher TEAE: Hyperglycemia (1.0 mg/kg Q1W, n = 20): 3 (15%) n (%) | Grade 3 or higher TEAE: Hypophosphataemia (1.0 mg/kg Q1W, n = 20): 1 (5%) n (%) | Grade 3 or higher TEAE: Myalgia (1.0 mg/kg Q1W, n = 20): 0 n (%) | Grade 3 or higher TEAE: Nausea (1.0 mg/kg Q1W, n = 20): 1 (5%) n (%) | Grade 3 or higher TEAE: Neutropenia (1.0 mg/kg Q1W, n = 20): 2 (10%) n (%) | Grade 3 or higher TEAE: Neutrophil count decreased (1.0 mg/kg Q1W, n = 20): 1 (5%) n (%) | Grade 3 or higher TEAE: Peripheral Sensory Neuropathy (1.0 mg/kg Q1W, n = 20): 3 (15%) n (%) | SAE: Anaemia (1.0 mg/kg Q1W, n = 20): 1 (5%) n (%) | SAE: Any Adverse Event (1.0 mg/kg Q1W, n = 20): 5 (25%) n (%) | SAE: Colitis (1.0 mg/kg Q1W, n = 20): 1 (5%) n (%) | SAE: Dehydration (1.0 mg/kg Q1W, n = 20): 1 (5%) n (%) | SAE: Diabetic ketoacidosis (1.0 mg/kg Q1W, n = 20): 1 (5%) n (%) | SAE: Dyspnoea (1.0 mg/kg Q1W, n = 20): 2 (10%) n (%) | SAE: Embolism (1.0 mg/kg Q1W, n = 20): 1 (5%) n (%) | SAE: Fatigue (1.0 mg/kg Q1W, n = 20): 1 (5%) n (%) | SAE: Febrile neutropenia (1.0 mg/kg Q1W, n = 20): 1 (5%) n (%) | SAE: Hyperglycaemia (1.0 mg/kg Q1W, n = 20): 1 (5%) n (%) | SAE: Pneumonia (1.0 mg/kg Q1W, n = 20): 0 n (%) | Grade 3 or higher TEAE: Any Adverse Event (1.25 mg/kg Q1W, n = 18): 14 (78%) n (%) | Grade 3 or higher TEAE: Diarrhoea (1.25 mg/kg Q1W, n = 18): 1 (6%) n (%) | Grade 3 or higher TEAE: Fatigue (1.25 mg/kg Q1W, n = 18): 2 (11%) n (%) | Grade 3 or higher TEAE: Hyperglycemia (1.25 mg/kg Q1W, n = 18): 1 (6%) n (%) | Grade 3 or higher TEAE: Hypophosphataemia (1.25 mg/kg Q1W, n = 18): 2 (11%) n (%) | Grade 3 or higher TEAE: Myalgia (1.25 mg/kg Q1W, n = 18): 1 (6%) n (%) | Grade 3 or higher TEAE: Nausea (1.25 mg/kg Q1W, n = 18): 1 (6%) n (%) | Grade 3 or higher TEAE: Neutropenia (1.25 mg/kg Q1W, n = 18): 4 (22%) n (%) | Grade 3 or higher TEAE: Neutrophil count decreased (1.25 mg/kg Q1W, n = 18): 1 (6%) n (%) | Grade 3 or higher TEAE: Peripheral Sensory Neuropathy (1.25 mg/kg Q1W, n = 18): 6 (33%) n (%) | SAE: Anaemia (1.25 mg/kg Q1W, n = 18): 0 n (%) | SAE: Any Adverse Event (1.25 mg/kg Q1W, n = 18): 5 (28%) n (%) | SAE: Colitis (1.25 mg/kg Q1W, n = 18): 0 n (%) | SAE: Dehydration (1.25 mg/kg Q1W, n = 18): 0 n (%) | SAE: Diabetic ketoacidosis (1.25 mg/kg Q1W, n = 18): 0 n (%) | SAE: Dyspnoea (1.25 mg/kg Q1W, n = 18): 1 (6%) n (%) | SAE: Embolism (1.25 mg/kg Q1W, n = 18): 0 n (%) | SAE: Fatigue (1.25 mg/kg Q1W, n = 18): 0 n (%) | SAE: Febrile neutropenia (1.25 mg/kg Q1W, n = 18): 0 n (%) | SAE: Hyperglycaemia (1.25 mg/kg Q1W, n = 18): 1 (6%) n (%) | SAE: Pneumonia (1.25 mg/kg Q1W, n = 18): 2 (11%) n (%) | Grade 3 or higher TEAE: Any Adverse Event (1.5 mg/kg Q1W, n = 2): 2 (100%) n (%) | Grade 3 or higher TEAE: Myalgia (1.5 mg/kg Q1W, n = 2): 1 (50%) n (%) | Grade 3 or higher TEAE: Neutropenia (1.5 mg/kg Q1W, n = 2): 1 (50%) n (%) | SAE: Anaemia (1.5 mg/kg Q1W, n = 2): 0 n (%) | SAE: Any Adverse Event (1.5 mg/kg Q1W, n = 2): 1 (50%) n (%) | SAE: Colitis (1.5 mg/kg Q1W, n = 2): 0 n (%) | SAE: Dehydration (1.5 mg/kg Q1W, n = 2): 0 n (%) | SAE: Diabetic ketoacidosis (1.5 mg/kg Q1W, n = 2): 0 n (%) | SAE: Dyspnoea (1.5 mg/kg Q1W, n = 2): 0 n (%) | SAE: Embolism (1.5 mg/kg Q1W, n = 2): 0 n (%) | SAE: Fatigue (1.5 mg/kg Q1W, n = 2): 0 n (%) | SAE: Febrile neutropenia (1.5 mg/kg Q1W, n = 2): 0 n (%) | SAE: Hyperglycaemia (1.5 mg/kg Q1W, n = 2): 0 n (%) | SAE: Pneumonia (1.5 mg/kg Q1W, n = 2): 0 n (%) | incidence of a variety of adverse events, Q1W vs Q3W (3.0-4.5 mg/kg per 3 weeks on Q1W vs. 2.5 mg/kg on Q3W): lower incidence | dose limiting toxicities (Dose level 0 (1 mg/kg Q1W), +1 (1.25 mg/kg Q1W), +2 (1.5 mg/kg Q1W)): no dose limiting toxicities observed | Adverse event incidence: Abdominal Pain (Q1W, N = 40): 7 (18%) | Adverse event incidence: Alopecia (Q1W, N = 40): 10 (25%) | Adverse event incidence: Constipation (Q1W, N = 40): 10 (25%) | Adverse event incidence: Decreased Appetite (Q1W, N = 40): 11 (28%) | Adverse event incidence: Diarrhea (Q1W, N = 40): 11 (28%) | Adverse event incidence: Fatigue (Q1W, N = 40): 18 (45%) | Adverse event incidence: Hypokalemia (Q1W, N = 40): 4 (10%) | Adverse event incidence: Nausea (Q1W, N = 40): 14 (35%) | Adverse event incidence: Neutropenia (Q1W, N = 40): 10 (25%) | Adverse event incidence: Peripheral Sensory Neuropathy (Q1W, N = 40): 9 (23%) | Adverse event incidence: Vomiting (Q1W, N = 40): 8 (20%) | Grade 3 or higher TEAE: Any Adverse Event (Total, all Q1W doses, n = 40): 28 (70%) n (%) | Grade 3 or higher TEAE: Diarrhoea (Total, all Q1W doses, n = 40): 2 (5%) n (%) | Grade 3 or higher TEAE: Fatigue (Total, all Q1W doses, n = 40): 6 (15%) n (%) | Grade 3 or higher TEAE: Hyperglycemia (Total, all Q1W doses, n = 40): 4 (10%) n (%) | Grade 3 or higher TEAE: Hypophosphataemia (Total, all Q1W doses, n = 40): 3 (8%) n (%) | Grade 3 or higher TEAE: Myalgia (Total, all Q1W doses, n = 40): 2 (5%) n (%) | Grade 3 or higher TEAE: Nausea (Total, all Q1W doses, n = 40): 2 (5%) n (%) | Grade 3 or higher TEAE: Neutropenia (Total, all Q1W doses, n = 40): 7 (18%) n (%) | Grade 3 or higher TEAE: Neutrophil count decreased (Total, all Q1W doses, n = 40): 2 (5%) n (%) | Grade 3 or higher TEAE: Peripheral Sensory Neuropathy (Total, all Q1W doses, n = 40): 9 (23%) n (%) | SAE: Anaemia (Total, all Q1W doses, n = 40): 1 (3%) n (%) | SAE: Any Adverse Event (Total, all Q1W doses, n = 40): 11 (28%) n (%) | SAE: Colitis (Total, all Q1W doses, n = 40): 1 (3%) n (%) | SAE: Dehydration (Total, all Q1W doses, n = 40): 1 (3%) n (%) | SAE: Diabetic ketoacidosis (Total, all Q1W doses, n = 40): 1 (3%) n (%) | SAE: Dyspnoea (Total, all Q1W doses, n = 40): 3 (8%) n (%) | SAE: Embolism (Total, all Q1W doses, n = 40): 1 (3%) n (%) | SAE: Fatigue (Total, all Q1W doses, n = 40): 1 (3%) n (%) | SAE: Febrile neutropenia (Total, all Q1W doses, n = 40): 1 (3%) n (%) | SAE: Hyperglycaemia (Total, all Q1W doses, n = 40): 2 (5%) n (%) | SAE: Pneumonia (Total, all Q1W doses, n = 40): 2 (5.%) n (%)

Reference: patent publication US20210030885A1, “HUMANIZED ANTI-LIV1 ANTIBODIES FOR THE TREATMENT OF CANCER” (priority 2019, published 2021)
